In US20160185859A1 (Pfizer, published 2016):
Where a chain is given by its changes, count along the chain named. Names and notes keep the numbering of the source. Like-named read-outs stand apart in the source and are kept apart here.

Tests used:
[1] = target: human 5T4 antigen expressed on cells (PC14PE6 cells; MDAMB435/5T4 cells) (human) (UniProt Q13641); assay: FACS of PC14PE6 cells; control
human 5T4 antigen [2] = target: T1, human 5T4 antigen (human, UniProt Q13641 32-355, limits assumed); assay: BIACORE (SPR); human 5T4 antigen immobilized on CM5 chip
T1 sequence: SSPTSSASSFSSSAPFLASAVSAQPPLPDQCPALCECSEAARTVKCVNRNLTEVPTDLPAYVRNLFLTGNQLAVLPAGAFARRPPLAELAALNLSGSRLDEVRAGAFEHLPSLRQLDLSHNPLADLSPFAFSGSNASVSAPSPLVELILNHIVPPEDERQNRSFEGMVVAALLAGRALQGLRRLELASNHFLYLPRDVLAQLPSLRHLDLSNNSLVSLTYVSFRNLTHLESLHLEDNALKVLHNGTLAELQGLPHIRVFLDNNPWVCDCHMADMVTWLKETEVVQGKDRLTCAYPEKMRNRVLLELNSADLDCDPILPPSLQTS
Protocol: (§1) To assess the binding specificity and affinity of the A1, A2, and A3 antibodies, BIACORE® analysis was performed using human 5T4 antigen immobilized on a CM5 chip. BIACORE® technology utilizes changes in the refractive index at the surface layer upon binding of the antibody to the 5T4 antigen immobilized on the layer. Binding is detected by surface plasmon resonance (SPR) of laser light refracting from the surface. Analysis of the signal kinetics on rate and off rate allows discrimination between non-specific and specific interactions. The H8 anti-5T4 antibody was used as a control. H8 is a hybridoma-generated monoclonal mouse IgG1 antibody described in PCT International Publication No. WO 98/55607 and in Forsberg et al. (1997) J. Biol. Chem. 272(19):[…].

human 5T4 antigen [3] = target: T1, human 5T4 antigen; assay: BIACORE; human 5T4 chip saturated with first antibody H8 (competitor)
Protocol: Epitope mapping of the H8, A1, A2, and A3 antibodies was also performed using BIACORE® using a CM5 chip with bound human 5T4 antigen. The chip was saturated with H8, A1, A2, or A3 antibody, and a first response was measured. The chip was then saturated with a second antibody from among the H8, A1, A2, and A3 antibodies, and a second response was measured. For multiple experiments, the chip was regenerated by dissociation of the bound antibodies in 10 mM glycine, pH 1.5, followed by a buffer wash. The percentages shown are the response units measured upon binding by a second antibody directly to the CM5 chip divided by the response units measured upon binding of the second antibody to a CM5 chip saturated with a first antibody.

[4] = target: T2, human 5T4 antigen expressed on cells (PC14PE6 cells; MDAMB435/5T4 cells) (human, UniProt Q13641 32-420); assay: FACS of PC14PE6 cells
T2 construct: PC14PE6 are human non-small cell lung cancer cells; also called 5T4-expressing PC14PE6 cells
T2 sequence: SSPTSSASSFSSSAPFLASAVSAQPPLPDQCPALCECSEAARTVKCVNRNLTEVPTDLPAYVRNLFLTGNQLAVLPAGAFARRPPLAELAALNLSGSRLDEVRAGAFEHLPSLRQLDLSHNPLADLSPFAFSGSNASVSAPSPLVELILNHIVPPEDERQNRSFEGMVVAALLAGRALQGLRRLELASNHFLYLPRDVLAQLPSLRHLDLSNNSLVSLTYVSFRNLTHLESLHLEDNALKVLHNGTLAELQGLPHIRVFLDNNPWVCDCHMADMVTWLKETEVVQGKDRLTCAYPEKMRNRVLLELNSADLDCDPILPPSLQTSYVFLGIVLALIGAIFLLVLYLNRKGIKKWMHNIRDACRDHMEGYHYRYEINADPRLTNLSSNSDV

human 5T4 antigen [5] = target: T1, human 5T4 antigen; assay: BIACORE (SPR); human 5T4 antigen immobilized on CM5 chip; remark: listed apart in the source
Protocol: as §1
To assess the binding specificity and affinity of the chimeric and humanized H8, A1, A2, and A3 antibodies, BIACORE® analysis was performed using human 5T4 antigen immobilized on a CM5 chip. See Example 2.

human 5T4 antigen [6] = target: T1, human 5T4 antigen; assay: BIACORE; human 5T4 chip saturated with first antibody humanized H8 (competitor); 75 s after injection of second antibody
human 5T4 antigen [7] = target: T1, human 5T4 antigen; assay: BIACORE; human 5T4 chip saturated with first antibody humanized H8 (competitor); 19 s after injection of second antibody
human 5T4 antigen [8] = target: T1, human 5T4 antigen; assay: BIACORE; human 5T4 chip saturated with first antibody humanized H8 (competitor); 300 s after injection of second antibody
human 5T4 antigen [9] = target: T1, human 5T4 antigen; assay: BIACORE; human 5T4 chip saturated with first antibody humanized H8 (competitor); 150 s after injection of second antibody
human 5T4 antigen [10] = target: T1, human 5T4 antigen; assay: BIACORE; human 5T4 chip saturated with first antibody humanized H8 (competitor); 600 s after injection of second antibody
human 5T4 antigen [11] = target: T1, human 5T4 antigen; assay: BIACORE; human 5T4 chip saturated with first antibody humanized H8 (competitor); 37.5 s after injection of second antibody
[12] = target: T3, cynomologous monkey 5T4 ectodomain Fc (cynomologous monkey; human, UniProt Q4R8Y9 32-355); assay: ELISA; 5T4 ectodomain/Fc fusion protein from transiently transfected COS-1 cells; given as ED50
T3 construct: not shown: Fc constant regions from human IgG1
T3 chain: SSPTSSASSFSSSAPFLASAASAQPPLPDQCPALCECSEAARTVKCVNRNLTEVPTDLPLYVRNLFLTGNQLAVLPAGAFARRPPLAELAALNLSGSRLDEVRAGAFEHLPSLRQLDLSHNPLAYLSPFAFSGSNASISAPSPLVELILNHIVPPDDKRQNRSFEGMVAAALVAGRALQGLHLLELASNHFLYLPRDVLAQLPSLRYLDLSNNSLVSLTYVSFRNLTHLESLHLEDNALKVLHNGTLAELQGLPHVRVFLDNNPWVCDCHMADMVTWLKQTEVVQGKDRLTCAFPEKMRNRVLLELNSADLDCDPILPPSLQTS
Protocol: (§2) To assay binding of anti-5T4 antibodies, 5T4 ectodomain/Fc fusion proteins were transiently transfected into COS-1 cells, and ELISA assays were performed. Non-relevant human IgG4 and IgG1 antibodies were used as controls.

[13] = target: chimpanzee 5T4 ectodomain Fc (chimpanzee; human, UniProt P01857 99-330 = IgG part); assay: as above
Protocol: as §2

human 5T4 ectodomain Fc = target: T4, human 5T4 ectodomain Fc (human, UniProt Q13641 32-355); assay: as above
T4 construct: also called human 5T4 ectodomain Fc fusion protein; Human 5T4 Ectodomain/Fc Fusion; not shown: Fc constant regions from human IgG1
T4 sequence: T1 sequence
Protocol: as §2

human 5T4 antigen [14] = target: T1, human 5T4 antigen; assay: ELISA; inhibition of biotinylated chimeric A1 antibody binding to human 5T4

Control (secondary Ab) (antibody)
Mean Cellular Flouresence [1]: 4

Control (murine IgG) (antibody)
Mean Cellular Flouresence [1]: 4

B1: murine anti-5T4 antibody A1 (antibody, V domains shown)
VH: QIQLVQSGPELKKPGETVKISCKASGYTFTNFGMNWVKQGPGEGLKWMGWINTNTGEPRYAEEFKGRCAFSLETTASTAYLQINNLKNEDTATYFCARDWDGAYFFDYWGQGTTLTVSS
VL: SIVMTQTPKFLLVSAGDRVTITCKASQSVSNDVAWYQQKPGQSPKLLINFATNRYTGVPNRFTGSGYGTDFTFTISTVQAEDLALYFCQQDYSSPWTFGGGTKLEIK
Ka (human 5T4 antigen [2]): 1.6e+09 M⁻¹ | Kd (human 5T4 antigen [2]): 0.64 nM | koff (human 5T4 antigen [2]): 0.00013 s⁻¹ | kon (human 5T4 antigen [2]): 200000 M⁻¹ s⁻¹ | percentage response of second antibody following saturation with first antibody (human 5T4 antigen [3]): 109% | Mean Cellular Flouresence [4]: 18

B2: chimeric A1 antibody bearing C67F mutation (antibody, V domains shown)
VH: B1 VH with C68F
VL: B1 VL
notes: also called Chimeric A1 + C67F; ChiA1+C67F
Ka (human 5T4 antigen [5]): 2.6e+09 M⁻¹ | Kd (human 5T4 antigen [5]): 0.38 nM | koff (human 5T4 antigen [5]): 6.3e-05 s⁻¹ | kon (human 5T4 antigen [5]): 170000 M⁻¹ s⁻¹

B3: chimeric A3 antibody (antibody, human IgG4, V domains shown)
VH: EVQLVESGGGLVQPKGSLKLSCAASGFTFNTYAMNWVRQAPGKGLEWVARIRSKSNNYATYYADSVKDRFTISRDDSQSMLYLQMNNLKTEDTAMYCCVRQWDYDVRAMNYWGQGTSVTVSS
VL: DIVMTQSHIFMSTSVGDRVSITCKASQDVDTAVAWYQQKPGQSPKLLIYWASTRLTGVPDRFTGSGSGTDFTLTISNVQSEDLADYFCQQYSSYPYTFGGGTKLEIK
notes: also called ChiA3; ChiA3 γ4
percentage of second antibody bound following saturation with first antibody (human 5T4 antigen [6]): 58.4% | percentage of second antibody bound following saturation with first antibody (human 5T4 antigen [7]): 46.2% | percentage of second antibody bound following saturation with first antibody (human 5T4 antigen [8]): 76.2% | percentage of second antibody bound following saturation with first antibody (human 5T4 antigen [9]): 67.5% | Ka (human 5T4 antigen [5]): ~5.4e+09 M⁻¹ | Kd (human 5T4 antigen [5]): ≤ 0.18 nM | koff (human 5T4 antigen [5]): ≤ 1e-05 s⁻¹ | kon (human 5T4 antigen [5]): ~54000 M⁻¹ s⁻¹ | percentage of second antibody bound following saturation with first antibody (human 5T4 antigen [10]): 83.6% | percentage of second antibody bound following saturation with first antibody (human 5T4 antigen [11]): 51.2% | EC50 [12]: 0.23 nM | EC50 [13]: 0.2 nM | EC50 (human 5T4 ectodomain Fc): 0.2 nM

B4: murine anti-5T4 antibody A3 (antibody, V domains shown)
VH: B3 VH
VL: B3 VL
notes: also called muA3
Ka (human 5T4 antigen [2]): 4.6e+08 M⁻¹ | Kd (human 5T4 antigen [2]): 2.2 nM | koff (human 5T4 antigen [2]): 5.2e-05 s⁻¹ | kon (human 5T4 antigen [2]): 24000 M⁻¹ s⁻¹ | percentage response of second antibody following saturation with first antibody (human 5T4 antigen [3]): 73% | Mean Cellular Flouresence [4]: 27

B5: chimeric A3 antibody bearing C91Y mutation (antibody, V domains shown)
VH: B3 VH with C97Y
VL: B3 VL
notes: also called Chimeric A3 + C91Y; ChiA3+C91Y
Ka (human 5T4 antigen [5]): 1.7e+09 M⁻¹ | Kd (human 5T4 antigen [5]): 0.59 nM | koff (human 5T4 antigen [5]): 1.6e-05 s⁻¹ | kon (human 5T4 antigen [5]): 27000 M⁻¹ s⁻¹

B6: huA1 VH v2.0 + huA1 VL v1.1 (antibody, V domains shown)
VH: EVQLVESGGGLVQPGGSLRLSCAASGYTFTNFGMNWVRQAPGKGLEWVAWINTNTGEPRYAEEFKGRFTISRDNAKNSLYLQMNSLRAEDTAVYYCARDWDGAYFFDYWGQGTLVTVSS
VL: DIVMTQSPDSLAVSLGERATINCKASQSVSNDVAWYQQKPGQPPKLLIYFATNRYTGVPDRFSGSGYGTDFTLTISSLQAEDVAVYYCQQDYSSPWTFGQGTKVEIK
notes: also called humanized A1 VH version 2.0 + humanized A1 VL version 1.1
IC50 (human 5T4 antigen [14]): 28 nM

B7: huA1 VH v2.0 + huA1 VL v3.1 (antibody, V domains shown)
VH: B6 VH
VL: EIVMTQSPATLSLSPGERATLSCKASQSVSNDVAWYQQKPGQAPRLLIYFATNRYTGIPARFSGSGYGTDFTLTISSLQPEDFAVYYCQQDYSSPWTFGQGTKVEIK
IC50 (human 5T4 antigen [14]): 27 nM

B8: huA1 VH v2.0 + huA1 VL v2.4 (antibody, V domains shown)
VH: B6 VH
VL: DIQMTQSPSSLSASVGDRVTITCKASQSVSNDVAWYQQKPGKAPKLLIYFATNRYTGVPSRFSGSGYGTDFTLTISSLQPEDFATYYCQQDYSSPWTFGQGTKVEIK
IC50 (human 5T4 antigen [14]): 16 nM

B9: murine anti-5T4 antibody A2 (antibody, V domains shown)
VH: QVQLQQSRPELVKPGASVKMSCKASGYTFTDYVISWVKQRTGQGLEWIGEIYPGSNSIYYNEKFKGRATLTADKSSSTAYMQLSSLTSEDSAVYFCAMGGNYGFDYWGQGTTLTVSS
VL: QIVLTQSPAIMSASLGERVTLTCTASSSVNSNYLHWYQQKPGSSPKLWIYSTSNLASGVPARFSGSGSGTSYSLTISSMEAEDAATYYCHQYHRSPLTFGAGTKLELK
notes: also called muA2
Ka (human 5T4 antigen [2]): 6.5e+07 M⁻¹ | Kd (human 5T4 antigen [2]): 15 nM | koff (human 5T4 antigen [2]): 0.00087 s⁻¹ | kon (human 5T4 antigen [2]): 56000 M⁻¹ s⁻¹ | percentage response of second antibody following saturation with first antibody (human 5T4 antigen [3]): 99% | Mean Cellular Flouresence [4]: 7
